These results are taken from paper PMC7807754, “A novel protein encoded by circular SMO RNA is essential for Hedgehog signaling activation and glioblastoma tumorigenicity” (Genome Biology, 2021).

The experiment deals with T1, 6xHis-SMO (human, UniProt Q99835 28-787).
T1 construct: smoothened (SMO), human; The plasmid for the 6xHis-tagged protein is not described; source: 293T, transfected, purified (HisPur Ni-NTA Purification Kit)
As to the kind of experiment: co-IP; in vitro IP with proteins purified from 293T: GFP or GFP-193a.a. incubated with 6xHis-SMO for 4 h at 4 °C, immunoprecipitation overnight at 4 °C, protein A/G agarose, washed with PBST 5 times, western blotting. The note with it: both partners purified.

T1 sequence (Q99835 28-787): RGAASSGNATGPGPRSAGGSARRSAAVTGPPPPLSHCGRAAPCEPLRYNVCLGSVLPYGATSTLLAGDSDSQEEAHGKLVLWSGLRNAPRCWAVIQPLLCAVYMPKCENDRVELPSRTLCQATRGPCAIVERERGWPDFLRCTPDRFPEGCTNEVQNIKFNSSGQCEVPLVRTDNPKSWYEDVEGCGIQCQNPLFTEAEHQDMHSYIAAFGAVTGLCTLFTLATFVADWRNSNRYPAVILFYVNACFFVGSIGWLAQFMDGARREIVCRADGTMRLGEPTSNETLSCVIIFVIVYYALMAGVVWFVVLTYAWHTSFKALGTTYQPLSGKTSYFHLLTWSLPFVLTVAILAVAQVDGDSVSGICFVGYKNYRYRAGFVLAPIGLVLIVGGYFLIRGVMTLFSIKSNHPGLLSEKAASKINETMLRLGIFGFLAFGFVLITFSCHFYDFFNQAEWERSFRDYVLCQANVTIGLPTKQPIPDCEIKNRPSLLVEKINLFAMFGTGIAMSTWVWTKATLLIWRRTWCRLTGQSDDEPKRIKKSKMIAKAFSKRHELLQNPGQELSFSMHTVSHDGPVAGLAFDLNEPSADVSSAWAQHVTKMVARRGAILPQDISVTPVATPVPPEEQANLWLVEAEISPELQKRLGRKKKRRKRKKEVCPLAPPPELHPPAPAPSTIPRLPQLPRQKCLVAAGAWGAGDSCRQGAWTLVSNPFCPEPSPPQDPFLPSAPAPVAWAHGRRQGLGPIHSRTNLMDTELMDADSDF

B1: GFP-SMO-193a.a. (natural protein, human)
chain: MHSYIAAFGAVTGLCTLFTLATFVADWRNSNRYPAVILFYVNACFFVGSIGWLAQFMDGARREIVCRADGTMRLGEPTSNETLSCVIIFVIVYYALMAGVVWFVVLTYAWHTSFKALGTTYQPLSGKTSYFHLLTWSLPFVLTVAILAVAQVDGDSVSGICFVGYKNYRYRAGFVLAPIGLVLIVGGYFLIRE
notes: SMO (smoothened), human, amino acids 230-421; the open reading frame of circ-SMO; extra Glu at the C-terminal, not part of linear SMO; The plasmid for the GFP-tagged protein is not described; source: 293T, transfected, purified (anti-GFP antibody, Catch and Release v2.0 Reversible Immunoprecipitation System)
As for B1, the binding result is on record as “binds”.
